Measured values reported in the supplement of paper PMC9112550, “Optimization of the antimicrobial peptide Bac7 by deep mutational scanning” (BMC Biology, 2022).

These sequences were tested on Escherichia coli TOP10 (assay: shrunken log2 fold change of peptide-encoding DNA abundance (4.5 h post-induction vs induction); higher = less antimicrobial activity (less host growth inhibition)). Details: time post-induction: 4.5 h; library: site-saturation at positions 5, 18, 19, 20.
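Note: peptides expressed intracellularly from a pBAD plasmid library in pooled LB shake-flask culture, induced with 0.3% L-arabinose, DNA abundance read by NGS, three biological replicates, DESeq2 with apeglm shrinkage.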

| Sequence | shrunken log2 fold change |
| --- | --- |
| RRIRRRPPRLPRPRPRPSMDPRP | 0.0821 |
| RRIRFRPPRLPRPRPRPEVCPRP | 0.00109 |
| RRIRGRPPRLPRPRPRPKPQPRP | 0.543 |
| RRIRIRPPRLPRPRPRPNNRPRP | -0.557 |
| RRIRGRPPRLPRPRPRPDWFPRP | 0.448 |
| RRIRIRPPRLPRPRPRPWQCPRP | 0.034 |
| RRIRGRPPRLPRPRPRPHEVPRP | 0.431 |
| RRIRMRPPRLPRPRPRPHKVPRP | 0.14 |
| RRIRRRPPRLPRPRPRPMTYPRP | -0.0343 |
| RRIRERPPRLPRPRPRPCGHPRP | 0.0222 |
| RRIRGRPPRLPRPRPRPSVRPRP | 0.529 |
| RRIRNRPPRLPRPRPRPSTIPRP | 0.0179 |
| RRIRDRPPRLPRPRPRPIGMPRP | 0.0484 |
| RRIRGRPPRLPRPRPRPVGCPRP | 0.74 |
| RRIRVRPPRLPRPRPRPCIPPRP | -0.467 |
| RRIRTRPPRLPRPRPRPMQSPRP | -0.349 |
| RRIRQRPPRLPRPRPRPMVYPRP | 0.017 |
| RRIRIRPPRLPRPRPRPSILPRP | -0.878 |
| RRIRIRPPRLPRPRPRPYFVPRP | -0.612 |
| RRIRFRPPRLPRPRPRPMRWPRP | 0.264 |
| RRIRKRPPRLPRPRPRPLQHPRP | 0.657 |
| RRIRMRPPRLPRPRPRPVPNPRP | 0.12 |
| RRIRQRPPRLPRPRPRPTQCPRP | -0.343 |
| RRIRGRPPRLPRPRPRPIKGPRP | -0.0627 |
| RRIRCRPPRLPRPRPRPSDGPRP | -0.0084 |

| Sequence | shrunken log2 fold change |
| --- | --- |
| RRIRFRPPRLPRPRPRPELLPRP | 0.146 |
| RRIRMRPPRLPRPRPRPGSDPRP | 1.4 |
| RRIRSRPPRLPRPRPRPTADPRP | 0.275 |
| RRIRIRPPRLPRPRPRPDAAPRP | 0.432 |
| RRIRTRPPRLPRPRPRPNTKPRP | -0.337 |
| RRIRWRPPRLPRPRPRPSTAPRP | 0.316 |
| RRIRNRPPRLPRPRPRPCIKPRP | -0.207 |
| RRIRWRPPRLPRPRPRPIYCPRP | -0.581 |
| RRIRIRPPRLPRPRPRPCCQPRP | -0.0291 |
| RRIRVRPPRLPRPRPRPPEGPRP | 0.582 |
| RRIRYRPPRLPRPRPRPRGPPRP | 0.127 |
| RRIRTRPPRLPRPRPRPDANPRP | -0.103 |
| RRIRTRPPRLPRPRPRPYMKPRP | -0.0199 |
| RRIRERPPRLPRPRPRPYFQPRP | -0.967 |
| RRIRDRPPRLPRPRPRPILMPRP | 0.303 |
| RRIRERPPRLPRPRPRPMGAPRP | 0.0638 |
| RRIRNRPPRLPRPRPRPDLWPRP | 0.551 |
| RRIRKRPPRLPRPRPRPWEFPRP | 0.504 |
| RRIRLRPPRLPRPRPRPKIIPRP | -0.69 |
| RRIRQRPPRLPRPRPRPERVPRP | 0.0836 |
| RRIRERPPRLPRPRPRPNHDPRP | -0.551 |
| RRIRPRPPRLPRPRPRPGYHPRP | -0.506 |
| RRIRPRPPRLPRPRPRPDPDPRP | -0.0832 |
| RRIRLRPPRLPRPRPRPAGDPRP | 0.297 |
| RRIRWRPPRLPRPRPRPGHAPRP | 0.234 |

| Sequence | shrunken log2 fold change |
| --- | --- |
| RRIRKRPPRLPRPRPRPPSAPRP | 0.798 |
| RRIRYRPPRLPRPRPRPSPKPRP | -0.105 |
| RRIRHRPPRLPRPRPRPQIMPRP | -0.682 |
| RRIRGRPPRLPRPRPRPGEDPRP | 0.872 |
| RRIRPRPPRLPRPRPRPHSNPRP | -0.316 |
| RRIRQRPPRLPRPRPRPWLIPRP | -0.289 |
| RRIRKRPPRLPRPRPRPLNKPRP | -0.0644 |
| RRIRFRPPRLPRPRPRPRKIPRP | 0.0429 |
| RRIRLRPPRLPRPRPRPLTKPRP | -0.0425 |
| RRIRTRPPRLPRPRPRPYLDPRP | -0.381 |
| RRIRMRPPRLPRPRPRPLTTPRP | 1.06 |
| RRIRQRPPRLPRPRPRPRPVPRP | 0.336 |
| RRIRTRPPRLPRPRPRPNIPPRP | -0.593 |
| RRIRPRPPRLPRPRPRPQTKPRP | -0.0309 |
| RRIRWRPPRLPRPRPRPEVGPRP | 1.38 |
| RRIRKRPPRLPRPRPRPKQKPRP | 0.054 |
| RRIRVRPPRLPRPRPRPDFGPRP | -0.0183 |
| RRIRMRPPRLPRPRPRPHDLPRP | -0.0136 |
| RRIRWRPPRLPRPRPRPTIKPRP | -0.125 |
| RRIRYRPPRLPRPRPRPCYTPRP | -0.5 |
| RRIRLRPPRLPRPRPRPWWRPRP | 0.197 |
| RRIRMRPPRLPRPRPRPHDYPRP | 1.54 |
| RRIRPRPPRLPRPRPRPHPTPRP | 0.17 |
| RRIRIRPPRLPRPRPRPINYPRP | -0.379 |
| RRIRHRPPRLPRPRPRPADDPRP | 0.083 |

| Sequence | shrunken log2 fold change |
| --- | --- |
| RRIRMRPPRLPRPRPRPYKEPRP | 0.0136 |
| RRIRNRPPRLPRPRPRPYARPRP | -0.0034 |
| RRIRTRPPRLPRPRPRPKFNPRP | -0.375 |
| RRIRKRPPRLPRPRPRPDNHPRP | -0.715 |
| RRIRERPPRLPRPRPRPDVAPRP | 0.087 |
| RRIRWRPPRLPRPRPRPLLLPRP | 0.152 |
| RRIRNRPPRLPRPRPRPETIPRP | -0.0777 |
| RRIRCRPPRLPRPRPRPWAWPRP | -0.105 |
| RRIRMRPPRLPRPRPRPIQIPRP | -0.155 |
| RRIRKRPPRLPRPRPRPQGCPRP | 0.421 |
| RRIRFRPPRLPRPRPRPYIHPRP | -0.932 |
| RRIRNRPPRLPRPRPRPRRYPRP | 0.0725 |
| RRIRTRPPRLPRPRPRPLVHPRP | -0.282 |
| RRIRVRPPRLPRPRPRPHKHPRP | -0.483 |
| RRIRIRPPRLPRPRPRPLVLPRP | -0.458 |
| RRIRTRPPRLPRPRPRPGYMPRP | -0.297 |
| RRIRMRPPRLPRPRPRPWGHPRP | 0.0533 |
| RRIRDRPPRLPRPRPRPVFGPRP | 0.342 |
| RRIRMRPPRLPRPRPRPIGPPRP | 0.069 |
| RRIRHRPPRLPRPRPRPPAWPRP | 0.0414 |
| RRIRNRPPRLPRPRPRPGWRPRP | 0.564 |
| RRIRCRPPRLPRPRPRPILLPRP | -1.03 |
| RRIRWRPPRLPRPRPRPFCCPRP | -0.163 |
| RRIRFRPPRLPRPRPRPMQPPRP | 0.287 |
| RRIRARPPRLPRPRPRPQNNPRP | -0.29 |

| Sequence | shrunken log2 fold change |
| --- | --- |
| RRIRARPPRLPRPRPRPKMCPRP | -0.0542 |
| RRIRVRPPRLPRPRPRPLFLPRP | -0.417 |
| RRIRGRPPRLPRPRPRPDWYPRP | 0.134 |
| RRIRMRPPRLPRPRPRPSEMPRP | 0.185 |
| RRIRHRPPRLPRPRPRPCLPPRP | -0.041 |
| RRIRARPPRLPRPRPRPGAKPRP | 0.623 |
| RRIRDRPPRLPRPRPRPSVEPRP | 1.45 |
| RRIRERPPRLPRPRPRPVLFPRP | -0.141 |
| RRIRDRPPRLPRPRPRPNFKPRP | -0.0287 |
| RRIRWRPPRLPRPRPRPHIAPRP | 0.0545 |
| RRIRRRPPRLPRPRPRPQGKPRP | 0.0379 |
| RRIRERPPRLPRPRPRPVYLPRP | -0.267 |
| RRIRHRPPRLPRPRPRPVEMPRP | -0.0679 |
| RRIRDRPPRLPRPRPRPWLCPRP | -0.0939 |
| RRIRPRPPRLPRPRPRPPKSPRP | 0.177 |
| RRIRKRPPRLPRPRPRPKPQPRP | 0.927 |
| RRIRWRPPRLPRPRPRPGGLPRP | 0.403 |
| RRIRIRPPRLPRPRPRPTICPRP | -0.191 |
| RRIRGRPPRLPRPRPRPWVWPRP | 0.368 |
| RRIRDRPPRLPRPRPRPHFHPRP | -0.0477 |
| RRIRVRPPRLPRPRPRPRPTPRP | 0.268 |
| RRIRYRPPRLPRPRPRPACCPRP | -0.405 |
| RRIRIRPPRLPRPRPRPGDKPRP | -0.218 |
| RRIRRRPPRLPRPRPRPAKNPRP | 0.279 |
| RRIRYRPPRLPRPRPRPFAWPRP | -0.0365 |

| Sequence | shrunken log2 fold change |
| --- | --- |
| RRIRNRPPRLPRPRPRPQLYPRP | -0.206 |
| RRIRDRPPRLPRPRPRPCLTPRP | 0.0157 |
| RRIRIRPPRLPRPRPRPHYPPRP | -0.32 |
| RRIRMRPPRLPRPRPRPVIAPRP | 0.125 |
| RRIRSRPPRLPRPRPRPYTNPRP | -1.46 |
| RRIRSRPPRLPRPRPRPVELPRP | 0.105 |
| RRIRERPPRLPRPRPRPYGVPRP | -0.128 |
| RRIRSRPPRLPRPRPRPNVAPRP | -0.0788 |
| RRIRSRPPRLPRPRPRPVCMPRP | -0.053 |
| RRIRVRPPRLPRPRPRPVFQPRP | -0.092 |
| RRIRNRPPRLPRPRPRPPGNPRP | 0.532 |
| RRIRNRPPRLPRPRPRPMNYPRP | -0.00918 |
| RRIRFRPPRLPRPRPRPQCIPRP | -0.0639 |
| RRIRTRPPRLPRPRPRPGALPRP | 0.00437 |
| RRIRHRPPRLPRPRPRPSKAPRP | -0.463 |
| RRIRCRPPRLPRPRPRPFNIPRP | -0.436 |
| RRIRERPPRLPRPRPRPHNYPRP | -0.612 |
| RRIRQRPPRLPRPRPRPLGMPRP | -0.218 |
| RRIRNRPPRLPRPRPRPGDGPRP | 0.292 |
| RRIRNRPPRLPRPRPRPMLHPRP | -0.263 |
| RRIRTRPPRLPRPRPRPWGMPRP | -0.126 |
| RRIRLRPPRLPRPRPRPSWEPRP | 0.0244 |
| RRIRDRPPRLPRPRPRPKLPPRP | 0.0818 |
| RRIRYRPPRLPRPRPRPFYAPRP | -0.642 |
| RRIRPRPPRLPRPRPRPRYFPRP | 0.0508 |
